What was measured:
[1] = biological target: T1, Recombinant Cx43CT (carboxyl terminal domain of connexin43, sequence 255-382 of rCx43 preceded by GPLG) (rat, UniProt P08050); assay: SPR, Cx43CT immobilised, peptide at 100 uM, response normalised on Mw
Text: (§1) Biophys. […] Commun. 8(4-6):225-229 (2001); Lang et al., “Surface Plasmon Resonance as a Method to Study the Kinetics and Amplitude of Protein-protein Binding,” in PRACTICAL METHODS IN CARDIOVASCULAR […] 936-947 (Stefan Dhein, Friedrich Wilhelm Mohr & Mario Delmar eds., 2005), which are hereby incorporated by reference in their entirety). Recombinant Cx43CT was covalently bound to a carboxylmethyl dextran matrix (Salamon et al., “Surface Plasmon Resonance Spectroscopy as a Tool for Investigating the Biochemical and Biophysical Properties of Membrane Protein Systems. II: Applications to Biological Systems,” Biochim. Biophys. Acta 1331(2):131-152 (1997), which is hereby incorporated by reference in its entirety). Specific peptides were presented and, when feasible, dissociation constants (KD) were calculated from the time course of binding and unbinding of the ligand, using a 1:1 (Langmuir) association and dissociation kinetic model (Biacore software package). In both phases (association and dissociation), the first 5-8 seconds of recording were not included in the fit, to avoid artifacts resulting from peptide distribution within the flow cells (Lang et al., “Surface Plasmon Resonance as a Method to Study the Kinetics and Amplitude of Protein-protein Binding,” in PRACTICAL METHODS IN CARDIOVASCULAR […] 936-947 (Stefan Dhein, Friedrich Wilhelm Mohr & Mario Delmar eds., 2005), which is hereby incorporated by reference in its entirety).
(§2) The peptides shown in table 2 and 3 were tested for binding to the carboxyl terminal domain (CT) of Cx43 using Surface Plasmon Resonance (“SPR”). SPR is a method that was used to identify the original RXPE sequence (Shibayama et al., “Identification of a Novel Peptide that Interferes with the Chemical Regulation of Connexin-43,” Circ. Res. 98:1365-72 (2006)). The amplitude of the response is also a function of the mass of the ligate, and the normalized data according to the individual peptide Mw's are shown in table 3.

[2] = biological target: T1, Recombinant Cx43CT (carboxyl terminal …); assay: SPR, Cx43CT immobilised, peptide at 250 uM, response normalised on Mw
Text: as §1, §2

[3] = biological target: T1, Recombinant Cx43CT (carboxyl terminal …); assay: SPR, Cx43CT immobilised, peptide at 1 mM, response normalised on Mw
Text: as §1, §2

[4] = biological target: T1, Recombinant Cx43CT (carboxyl terminal …); assay: SPR, Cx43CT immobilised, peptide at 100 uM
Protocol: (§3) Recombinant Cx43CT was covalently bound to a carboxylmethyl dextran matrix (Salamon et al., “Surface Plasmon Resonance Spectroscopy as a Tool for Investigating the Biochemical and Biophysical Properties of Membrane Protein Systems. II: Applications to Biological Systems,” Biochim. Biophys. Acta 1331(2):131-152 (1997), which is hereby incorporated by reference in its entirety). Specific peptides were presented and, when feasible, dissociation constants (KD) were calculated from the time course of binding and unbinding of the ligand, using a 1:1 (Langmuir) association and dissociation kinetic model (Biacore software package). In both phases (association and dissociation), the first 5-8 seconds of recording were not included in the fit, to avoid artifacts resulting from peptide distribution within the flow cells (Lang et al., “Surface Plasmon Resonance as a Method to Study the Kinetics and Amplitude of Protein-protein Binding,” in PRACTICAL METHODS IN CARDIOVASCULAR […] 936-947 (Stefan Dhein, Friedrich Wilhelm Mohr & Mario Delmar eds., 2005), which is hereby incorporated by reference in its entirety).
(§4) The peptides shown in table 2 and 3 were tested for binding to the carboxyl terminal domain (CT) of Cx43 using Surface Plasmon Resonance (“SPR”). SPR is a method that was used to identify the original RXPE sequence (Shibayama et al., “Identification of a Novel Peptide that Interferes with the Chemical Regulation of Connexin-43,” Circ. Res. 98:1365-72 (2006)).

[5] = biological target: T1, Recombinant Cx43CT (carboxyl terminal …); assay: SPR, Cx43CT immobilised, peptide at 500 uM, response normalised on Mw
Text: as §1, §2

[6] = biological target: T1, Recombinant Cx43CT (carboxyl terminal …); assay: SPR, Cx43CT immobilised, peptide at 25 uM, response normalised on Mw
Text: as §1, §2

[7] = biological target: T1, Recombinant Cx43CT (carboxyl terminal …); assay: SPR, Cx43CT immobilised, peptide at 1 mM
Protocol: as §3, §4

[8] = biological target: T1, Recombinant Cx43CT (carboxyl terminal …); assay: SPR, Cx43CT immobilised, peptide at 500 uM
Protocol: as §3, §4

[9] = biological target: T1, Recombinant Cx43CT (carboxyl terminal …); assay: SPR, Cx43CT immobilised, peptide at 25 uM
Protocol: as §3, §4

[10] = biological target: T1, Recombinant Cx43CT (carboxyl terminal …); assay: SPR, Cx43CT immobilised, peptide at 250 uM
Protocol: as §3, §4

T1 sequence (P08050 other isoform, or with tags, fused parts or gaps limits assumed): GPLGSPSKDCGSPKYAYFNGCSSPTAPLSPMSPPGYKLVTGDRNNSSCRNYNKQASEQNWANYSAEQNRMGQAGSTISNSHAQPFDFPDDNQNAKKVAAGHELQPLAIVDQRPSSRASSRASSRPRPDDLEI

Binder | SPR normalised on Mw at 100 uM [1] | SPR normalised on Mw at 250 uM [2] | SPR normalised on Mw at 1 mM [3] | SPR respons at 100 uM [4] [arbitrary units] | SPR normalised on Mw at 500 uM [5] | SPR normalised on Mw at 25 uM [6] | SPR respons at 1 mM [7] [arbitrary units] | SPR respons at 500 uM [8] [arbitrary units] | SPR respons at 25 uM [9] [arbitrary units] | SPR respons at 250 uM [10] [arbitrary units]
Ac-YNRRGGGSAVPFYSHSYNRR-NH2 [Compound 2496] | 6.5 (SPRrespons*100)/Mw | 15 (SPRrespons*100)/Mw | 58.8 (SPRrespons*100)/Mw | 156 | 31 (SPRrespons*100)/Mw | 2.8 (SPRrespons*100)/Mw | 1400 | 739 | 67.7 | 358
Ac-RRNYRRNY-NH2 [Compound 2497] | 6.8 (SPRrespons*100)/Mw | 16.3 (SPRrespons*100)/Mw | 45.7 (SPRrespons*100)/Mw | 84.2 | 26.5 (SPRrespons*100)/Mw | 2.4 (SPRrespons*100)/Mw | 565 | 328 | 30.2 | 202
Ac-RRNY-NH2 [Compound 2498] | – | – | 14 (SPRrespons*100)/Mw | – | 7.9 (SPRrespons*100)/Mw | – | 91 | 50.9 | – | –
Ac-YNRR-NH2 [Compound 2499] | – | – | 10.7 (SPRrespons*100)/Mw | – | – | – | 69.4 | – | – | –
Ac-RRNYSAVPFYSHSRRNY-NH2 [Compound 2506] | 5.3 (SPRrespons*100)/Mw | 14.8 (SPRrespons*100)/Mw | 53 (SPRrespons*100)/Mw | 117 | 25.4 (SPRrespons*100)/Mw | 2.3 (SPRrespons*100)/Mw | 1170 | 562 | 51.7 | 327
Ac-RRNYSHSRRNY-NH2 [Compound 2507] | 7.3 (SPRrespons*100)/Mw | 16.4 (SPRrespons*100)/Mw | 45.4 (SPRrespons*100)/Mw | 114 | 28.3 (SPRrespons*100)/Mw | 2.7 (SPRrespons*100)/Mw | 703 | 438 | 42.3 | 254
Ac-RRNYGGGSAVPFYRRNY-NH2 [Compound 2508] | 5.9 (SPRrespons*100)/Mw | 13.7 (SPRrespons*100)/Mw | 49.4 (SPRrespons*100)/Mw | 122 | 26.4 (SPRrespons*100)/Mw | 1.5 (SPRrespons*100)/Mw | 1020 | 547 | 31.1 | 285
Ac-RRNYGGGRRNY-NH2 [Compound 2509] | 4.4 (SPRrespons*100)/Mw | 10.5 (SPRrespons*100)/Mw | 34 (SPRrespons*100)/Mw | 62.5 | 19.9 (SPRrespons*100)/Mw | 1.5 (SPRrespons*100)/Mw | 479 | 281 | 21.5 | 148
Ac-RRNYGGSAVPFYSHRRNY-NH2 [Compound 2510] | 7.9 (SPRrespons*100)/Mw | 14.8 (SPRrespons*100)/Mw | 53 (SPRrespons*100)/Mw | 176 | 28.7 (SPRrespons*100)/Mw | 1.8 (SPRrespons*100)/Mw | 1190 | 643 | 40.3 | 332
Ac-RRNYAVPFRRNY-NH2 [Compound 2511] | 5.5 (SPRrespons*100)/Mw | 13 (SPRrespons*100)/Mw | 41.9 (SPRrespons*100)/Mw | 90.5 | 23.6 (SPRrespons*100)/Mw | 1 (SPRrespons*100)/Mw | 692 | 390 | 16.2 | 214
Ac-RRNYVPRRNY-NH2 [Compound 2512] | 3.5 (SPRrespons*100)/Mw | 8.2 (SPRrespons*100)/Mw | 27.5 (SPRrespons*100)/Mw | 50.7 | 15.9 (SPRrespons*100)/Mw | 1 (SPRrespons*100)/Mw | 395 | 227 | 14.8 | 117

Source: US20100298225A1, “PEPTIDE GAP JUNCTION MODULATORS” (published 2010)
